# Reference: PMC8422075 (EMBO Molecular Medicine, 2021)
# T1: Human LAG3_(23–434) (human, UniProt P18627 23-434, fluorescently labelled (fluorophore and site not named))
# T1 construct: Used only in the microfluidic diffusional sizing; also called labelled LAG3; source: bought: BonOpusBio (#CJ91)
# T1 sequence (looked up): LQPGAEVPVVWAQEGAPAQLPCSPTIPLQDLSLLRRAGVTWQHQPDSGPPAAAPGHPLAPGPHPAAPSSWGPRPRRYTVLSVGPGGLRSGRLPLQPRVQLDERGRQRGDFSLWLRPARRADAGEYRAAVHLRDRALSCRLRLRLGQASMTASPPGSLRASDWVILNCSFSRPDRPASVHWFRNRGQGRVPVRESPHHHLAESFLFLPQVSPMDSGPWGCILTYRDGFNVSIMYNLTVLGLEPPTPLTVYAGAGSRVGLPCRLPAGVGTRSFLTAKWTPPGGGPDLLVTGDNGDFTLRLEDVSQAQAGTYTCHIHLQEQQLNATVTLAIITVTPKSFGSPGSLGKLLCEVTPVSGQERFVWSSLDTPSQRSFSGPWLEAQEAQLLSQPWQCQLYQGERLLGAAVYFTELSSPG
# Biological target: T1, Human LAG3_(23–434)
# Assay: microfluidic diffusional sizing; fluorescently labelled protein (10 nM-10 µM) in solution, unlabelled ligand varied; PBS with 0.01% Tween-20; 60 min at room temperature; hydrodynamic radius read out; KD from Langmuir binding isotherm
# Details: both partners purified
binder,measurement,value
"FGL1 Protein, Human, Recombinant (ligand, UniProt Q08830 23-312, looked up, Fibrinogen-like protein 1, human, recombinant; source: bought: Sino Biological (13484‐H08B)) LEDCAQEQMRLRAQVRLLETRVKQQQVKIKQLLQENEVQFLDKGDENTVIDLGSKRQYADCSEIFNDGYKLSGFYKIKPLQSPAEFSVYCDMSDGGGWTVIQRRSDGSENFNRGWKDYENGFGNFVQKHGEYWLGNKNLHFLTTQEDYTLKIDLADFEKNSRYAQYKNFKVGDEKNFYELNIGEYSGTAGDSLAGNFHPEVQWWASHQRMKFSTWDRDHDNYEGNCAEEDQSGWWFNRCHSANLNGVYYSGPYTAKTDNGIVWYTWHGWWYSLKSVVMKIRPNDFIPNVI",Kd,232 ± 79 nM
